Experimental data reported in patent publication US20230312671A1 (ST JUDE CHILDREN S RESEARCH HOSPITAL, published 2023).
Where no end group is shown, it is not given here. The star is where a group is joined. Biotin = O=C1N[C@H]2[C@H](CS[C@H]2CCCCC(=O)*)N1; Ahx = NCCCCCC(=O)O

Target: T1, Glucose-regulated-protein 78 (GRP78), cell surface (UniProt P11021 19-654, limits assumed)
T1 construct: whole, on cells; The target was endogenous GRP78 on human tumour cell lines; No recombinant GRP78 was used; also called BiP; HSPA5
Assay: flow cytometry on AML and solid tumor cell lines, Streptavidin PE detection
Source text: Anti-KDEL antibody for detection of cell surface GRP78 (Abcam, Clone-10C3; Cat. No. ab115638) and Streptavidin PE (BioLegend, San Diego, CA. Cat. No 405204 were used for flow cytometric analysis. A GRP78-binding peptide ([…] (SEQ ID NO: 1)) with an N-terminal Biotin tag (Biotin-Ahx-[…] (SEQ ID NO: 71)) was obtained from Genscript). The following antibodies purchased from BD Biosciences were used for flow cytometry: CD4, CD8, CCR7 FITC, CD45RA APC, CD19 APC, CD19 PE, CD8 APC-H7, CD4-KrO, TIM3 PE-Cy7, LAG3 PE, and PD1 BV605. Recombinant Human ErbB2/Her2 Fc Chimera Protein (R&D Systems, Cat. No 1129-ER) was used to detect HER2 CAR. Half a million Transduced and Non-Transduced T Cells were washed with 1×PBS and the cells were incubated with 3 μL of antibody and Fixable Live Dead aqua stain (Thermo Fisher Scientific, L34965) on ice and protected from light for 30 mins. Cells were washed with 1×PBS+2% FBS. FACS was carried out using FACS Canto II or Lyric (BD Biosciences). The analysis was performed using FlowJo 10.5.3 software (BD Biosciences, San Jose, CA).

T1 sequence (P11021 19-654 limits assumed): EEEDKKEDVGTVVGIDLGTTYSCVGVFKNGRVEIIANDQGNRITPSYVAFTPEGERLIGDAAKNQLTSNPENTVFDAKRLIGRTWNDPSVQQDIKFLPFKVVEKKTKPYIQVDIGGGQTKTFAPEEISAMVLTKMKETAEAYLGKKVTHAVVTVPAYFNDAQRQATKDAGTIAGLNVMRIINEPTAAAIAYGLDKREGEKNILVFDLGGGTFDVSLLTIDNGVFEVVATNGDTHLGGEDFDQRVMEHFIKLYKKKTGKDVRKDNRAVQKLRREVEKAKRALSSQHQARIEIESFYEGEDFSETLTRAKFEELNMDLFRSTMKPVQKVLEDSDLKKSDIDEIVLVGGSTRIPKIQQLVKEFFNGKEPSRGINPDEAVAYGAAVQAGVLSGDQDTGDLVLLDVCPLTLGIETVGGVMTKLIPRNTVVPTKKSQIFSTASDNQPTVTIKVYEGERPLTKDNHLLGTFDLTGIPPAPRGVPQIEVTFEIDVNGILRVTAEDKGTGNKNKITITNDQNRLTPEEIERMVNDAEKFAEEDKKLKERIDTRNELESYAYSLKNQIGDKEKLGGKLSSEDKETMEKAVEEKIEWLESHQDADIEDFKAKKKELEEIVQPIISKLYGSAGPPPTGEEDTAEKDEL

binding result: binds
B1: biotin-conjugated GRP78-binding peptide (Biotin-Ahx-CTVALPGGYVRVC) (peptide)
peptide: {Biotin-Ahx}-CTVALPGGYVRVC
modifications: cysteine pairing not given here
notes: Synthetic 13-mer from Genscript, detected with Streptavidin PE in flow cytometry; also called biotin-conjugated peptide
